Patent publication US7244577

Biological target: low-density lipoprotein (LDL) particles, 125I-labelled
Assay: cell-based or functional assay

| Substance | uptake of 125I-LDL by FH fibroblasts infected with LRP5 adenovirus | uptake of 125I-LDL by FH fibroblasts infected with LDL-receptor adenovirus |
| --- | --- | --- |
| human LDL-receptor related protein-5 (LRP5), isoform 1 (from UniProt O75197 32-1615) | 60 % increase |  |
| LDL-receptor (from UniProt P01130 22-860) (receptor; the values are: fold increase in LDL uptake) |  | 20 fold |
